Data on 2 substances can be found in IntAct's records for PubMed 20924357.

Test [1] addresses bglg_ecoli bglG (UniProt P11989).
Test [2] has the same target. The source holds these as a separate data set.
Test [3] has the same target. The source holds these as a separate data set.

Sequence of bglg_ecoli bglG (P11989 whole entry): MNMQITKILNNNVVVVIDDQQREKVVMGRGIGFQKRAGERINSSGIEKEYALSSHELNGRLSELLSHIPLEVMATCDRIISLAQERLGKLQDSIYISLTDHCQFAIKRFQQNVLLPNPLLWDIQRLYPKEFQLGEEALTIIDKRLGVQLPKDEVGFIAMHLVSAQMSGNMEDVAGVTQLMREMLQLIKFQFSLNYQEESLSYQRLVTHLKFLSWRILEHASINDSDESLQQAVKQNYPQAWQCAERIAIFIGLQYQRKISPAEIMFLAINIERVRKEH

For “Phosphocarrier protein HPr (Escherichia coli (strain K12)), P0AA04 H15A”, the “effect of a mutation on the interaction” value with bglg_ecoli bglG [1] is “increasing interaction”.

Regarding “Phosphoenolpyruvate-protein phosphotransferase (Escherichia coli (strain K12)), P08839 H189A”, the “effect of a mutation on the interaction” value with bglg_ecoli bglG [2] is “disrupting interaction”; in the test with bglg_ecoli bglG [3], “decreasing interaction”.
